Experimental data taken from article PMC3110666 (Nature cell biology, 2011).

Biological target: the molecule itself
Test: cross-linking

B1: G6PD of MEF cells (enzyme, mouse (endogenous in MEF), UniProt Q00612 1-515, looked up)
chain: MAEQVALSRTQVCGILREELYQGDAFHQADTHIFIIMGASGDLAKKKIYPTIWWLFRDGLLPEDTFIVGYARSRLTVDDIRKQSEPFFKATPEERPKLEEFFARNSYVAGQYDDAASYKHLNSHMNALHQGMQANRLFYLALPPTVYEAVTKNIQETCMSQTGWNRIIVEKPFGRDLQSSNQLSNHISSLFREDQIYRIDHYLGKEMVQNLMVLRFANRIFGPIWNRDNIACVILTFKEPFGTEGRGGYFDEFGIIRDVMQNHLLQMLCLVAMEKPATTGSDDVRDEKVKVLKCISEVETDNVVLGQYVGNPNGEGEAANGYLDDPTVPHGSTTATFAAAVLYVENERWDGVPFILRCGKALNERKAEVRLQFRDVAGDIFHQQCKRNELVIRVQPNEAVYTKMMTKKPGMFFNPEESELDLTYGNRYKNVKLPDAYERLILDVFCGSQMHFVRSDELREAWRIFTPLLHKIDREKPQPIPYVYGSRGPTEADELMKRVGFQYEGTYKWVNPHKL
- stoichiometry N: 2
